Results from patent US20240101645A1 (HENRY M JACKSON FOUNDATION FOR THE ADVANCEMENT OF MILITARY …, published 2024).

T1: MERS-CoV spike antigens (bead panel) (MERS-CoV, UniProt K9N5Q8 18-1296)
T1 sequence: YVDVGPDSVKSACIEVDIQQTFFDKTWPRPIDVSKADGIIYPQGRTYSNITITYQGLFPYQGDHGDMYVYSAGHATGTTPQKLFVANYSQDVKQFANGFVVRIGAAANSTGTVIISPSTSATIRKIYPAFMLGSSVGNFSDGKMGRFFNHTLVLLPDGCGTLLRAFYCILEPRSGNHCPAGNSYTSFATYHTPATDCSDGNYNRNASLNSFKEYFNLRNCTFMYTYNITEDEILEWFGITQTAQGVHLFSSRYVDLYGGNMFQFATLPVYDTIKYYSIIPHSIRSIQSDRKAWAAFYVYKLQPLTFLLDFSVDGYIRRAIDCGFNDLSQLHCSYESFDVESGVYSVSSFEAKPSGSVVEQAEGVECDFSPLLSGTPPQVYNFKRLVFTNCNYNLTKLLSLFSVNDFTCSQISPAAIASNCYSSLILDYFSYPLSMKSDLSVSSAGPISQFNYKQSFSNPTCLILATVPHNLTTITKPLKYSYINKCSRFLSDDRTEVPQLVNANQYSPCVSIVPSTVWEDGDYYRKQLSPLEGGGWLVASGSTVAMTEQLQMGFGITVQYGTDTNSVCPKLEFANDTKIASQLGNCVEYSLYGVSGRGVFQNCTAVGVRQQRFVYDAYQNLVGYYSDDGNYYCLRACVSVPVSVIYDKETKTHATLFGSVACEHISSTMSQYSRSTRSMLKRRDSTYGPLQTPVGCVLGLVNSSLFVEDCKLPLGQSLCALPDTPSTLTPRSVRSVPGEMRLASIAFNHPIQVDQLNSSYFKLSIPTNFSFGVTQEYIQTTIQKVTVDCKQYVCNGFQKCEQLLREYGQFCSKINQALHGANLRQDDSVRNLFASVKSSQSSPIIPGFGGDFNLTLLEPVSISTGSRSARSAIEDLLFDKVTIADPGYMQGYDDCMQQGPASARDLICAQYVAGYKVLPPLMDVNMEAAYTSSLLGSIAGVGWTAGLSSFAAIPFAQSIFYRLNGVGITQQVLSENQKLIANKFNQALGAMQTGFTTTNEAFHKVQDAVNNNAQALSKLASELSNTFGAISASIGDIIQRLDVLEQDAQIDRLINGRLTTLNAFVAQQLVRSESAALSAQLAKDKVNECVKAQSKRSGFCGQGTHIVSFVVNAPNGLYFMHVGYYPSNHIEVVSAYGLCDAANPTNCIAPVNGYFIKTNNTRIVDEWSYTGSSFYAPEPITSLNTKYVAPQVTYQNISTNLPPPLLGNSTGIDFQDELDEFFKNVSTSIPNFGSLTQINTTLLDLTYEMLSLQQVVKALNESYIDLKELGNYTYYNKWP

T2: HCoV-229E spike antigens (bead panel) (HCoV-229E, UniProt P15423 16-1115)
T2 sequence: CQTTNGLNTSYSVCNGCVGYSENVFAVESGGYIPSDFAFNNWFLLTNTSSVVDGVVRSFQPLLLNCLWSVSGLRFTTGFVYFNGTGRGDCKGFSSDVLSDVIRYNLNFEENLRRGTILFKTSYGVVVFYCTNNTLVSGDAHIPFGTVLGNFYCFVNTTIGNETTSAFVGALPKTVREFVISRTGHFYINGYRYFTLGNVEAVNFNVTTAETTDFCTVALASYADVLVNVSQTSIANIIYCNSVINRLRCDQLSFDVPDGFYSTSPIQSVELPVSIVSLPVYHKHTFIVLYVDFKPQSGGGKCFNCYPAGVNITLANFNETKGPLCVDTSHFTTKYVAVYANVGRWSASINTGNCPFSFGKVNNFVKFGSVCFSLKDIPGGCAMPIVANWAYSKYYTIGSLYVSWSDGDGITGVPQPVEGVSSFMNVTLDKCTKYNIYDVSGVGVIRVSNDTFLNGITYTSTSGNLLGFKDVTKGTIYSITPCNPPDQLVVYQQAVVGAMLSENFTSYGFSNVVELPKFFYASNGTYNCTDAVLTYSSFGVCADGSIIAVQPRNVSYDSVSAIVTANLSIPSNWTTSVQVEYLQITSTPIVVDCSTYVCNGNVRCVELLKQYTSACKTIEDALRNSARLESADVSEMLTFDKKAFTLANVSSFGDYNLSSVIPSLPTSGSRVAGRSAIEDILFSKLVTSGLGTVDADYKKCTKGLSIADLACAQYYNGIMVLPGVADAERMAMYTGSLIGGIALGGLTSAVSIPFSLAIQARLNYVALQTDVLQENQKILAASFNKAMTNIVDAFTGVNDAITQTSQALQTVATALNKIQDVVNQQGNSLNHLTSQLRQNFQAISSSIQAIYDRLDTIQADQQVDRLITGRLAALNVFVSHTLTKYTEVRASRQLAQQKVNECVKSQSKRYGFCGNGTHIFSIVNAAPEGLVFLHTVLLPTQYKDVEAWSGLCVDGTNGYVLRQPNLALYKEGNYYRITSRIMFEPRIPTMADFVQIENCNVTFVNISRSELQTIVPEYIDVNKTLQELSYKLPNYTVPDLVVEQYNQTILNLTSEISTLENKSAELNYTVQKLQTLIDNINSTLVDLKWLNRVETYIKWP

T3: HCoV-HKU1 spike antigens (bead panel) (HCoV-HKU1, UniProt Q5MQD0 13-1300)
T3 sequence: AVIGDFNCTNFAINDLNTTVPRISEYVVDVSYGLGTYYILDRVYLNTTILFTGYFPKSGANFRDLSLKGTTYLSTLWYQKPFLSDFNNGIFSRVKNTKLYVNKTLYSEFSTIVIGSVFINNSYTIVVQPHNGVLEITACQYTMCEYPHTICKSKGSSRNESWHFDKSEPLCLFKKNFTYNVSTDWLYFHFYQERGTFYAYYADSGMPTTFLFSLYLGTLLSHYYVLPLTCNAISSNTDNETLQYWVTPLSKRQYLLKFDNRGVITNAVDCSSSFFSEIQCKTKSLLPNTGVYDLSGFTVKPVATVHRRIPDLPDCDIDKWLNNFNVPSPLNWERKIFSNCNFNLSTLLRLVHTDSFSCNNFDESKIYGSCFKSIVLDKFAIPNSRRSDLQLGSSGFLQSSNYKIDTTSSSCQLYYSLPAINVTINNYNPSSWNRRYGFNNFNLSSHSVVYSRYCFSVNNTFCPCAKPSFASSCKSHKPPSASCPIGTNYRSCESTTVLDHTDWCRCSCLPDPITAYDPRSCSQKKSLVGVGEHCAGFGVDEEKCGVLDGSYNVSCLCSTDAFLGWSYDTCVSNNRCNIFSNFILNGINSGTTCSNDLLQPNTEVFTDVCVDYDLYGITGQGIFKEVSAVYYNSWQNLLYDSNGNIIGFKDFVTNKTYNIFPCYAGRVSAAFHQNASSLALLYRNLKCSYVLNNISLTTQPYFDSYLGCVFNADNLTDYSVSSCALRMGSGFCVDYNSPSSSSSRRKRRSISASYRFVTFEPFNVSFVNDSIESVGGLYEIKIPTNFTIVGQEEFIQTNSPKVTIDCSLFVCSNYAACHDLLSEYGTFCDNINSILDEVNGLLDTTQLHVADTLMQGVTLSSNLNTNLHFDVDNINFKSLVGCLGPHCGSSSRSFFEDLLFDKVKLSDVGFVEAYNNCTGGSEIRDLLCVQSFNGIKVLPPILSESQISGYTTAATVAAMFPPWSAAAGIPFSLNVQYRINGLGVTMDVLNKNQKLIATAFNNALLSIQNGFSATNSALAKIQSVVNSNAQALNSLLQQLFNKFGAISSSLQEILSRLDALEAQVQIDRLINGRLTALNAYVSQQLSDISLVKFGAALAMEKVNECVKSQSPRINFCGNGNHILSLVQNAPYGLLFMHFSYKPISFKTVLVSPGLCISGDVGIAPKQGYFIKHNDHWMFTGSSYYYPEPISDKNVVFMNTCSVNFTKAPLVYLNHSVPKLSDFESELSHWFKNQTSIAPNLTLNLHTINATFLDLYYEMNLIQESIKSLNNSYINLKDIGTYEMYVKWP

T4: HCoV-OC43 spike antigens (bead panel) (HCoV-OC43, UniProt P36334 14-1297)
T4 sequence: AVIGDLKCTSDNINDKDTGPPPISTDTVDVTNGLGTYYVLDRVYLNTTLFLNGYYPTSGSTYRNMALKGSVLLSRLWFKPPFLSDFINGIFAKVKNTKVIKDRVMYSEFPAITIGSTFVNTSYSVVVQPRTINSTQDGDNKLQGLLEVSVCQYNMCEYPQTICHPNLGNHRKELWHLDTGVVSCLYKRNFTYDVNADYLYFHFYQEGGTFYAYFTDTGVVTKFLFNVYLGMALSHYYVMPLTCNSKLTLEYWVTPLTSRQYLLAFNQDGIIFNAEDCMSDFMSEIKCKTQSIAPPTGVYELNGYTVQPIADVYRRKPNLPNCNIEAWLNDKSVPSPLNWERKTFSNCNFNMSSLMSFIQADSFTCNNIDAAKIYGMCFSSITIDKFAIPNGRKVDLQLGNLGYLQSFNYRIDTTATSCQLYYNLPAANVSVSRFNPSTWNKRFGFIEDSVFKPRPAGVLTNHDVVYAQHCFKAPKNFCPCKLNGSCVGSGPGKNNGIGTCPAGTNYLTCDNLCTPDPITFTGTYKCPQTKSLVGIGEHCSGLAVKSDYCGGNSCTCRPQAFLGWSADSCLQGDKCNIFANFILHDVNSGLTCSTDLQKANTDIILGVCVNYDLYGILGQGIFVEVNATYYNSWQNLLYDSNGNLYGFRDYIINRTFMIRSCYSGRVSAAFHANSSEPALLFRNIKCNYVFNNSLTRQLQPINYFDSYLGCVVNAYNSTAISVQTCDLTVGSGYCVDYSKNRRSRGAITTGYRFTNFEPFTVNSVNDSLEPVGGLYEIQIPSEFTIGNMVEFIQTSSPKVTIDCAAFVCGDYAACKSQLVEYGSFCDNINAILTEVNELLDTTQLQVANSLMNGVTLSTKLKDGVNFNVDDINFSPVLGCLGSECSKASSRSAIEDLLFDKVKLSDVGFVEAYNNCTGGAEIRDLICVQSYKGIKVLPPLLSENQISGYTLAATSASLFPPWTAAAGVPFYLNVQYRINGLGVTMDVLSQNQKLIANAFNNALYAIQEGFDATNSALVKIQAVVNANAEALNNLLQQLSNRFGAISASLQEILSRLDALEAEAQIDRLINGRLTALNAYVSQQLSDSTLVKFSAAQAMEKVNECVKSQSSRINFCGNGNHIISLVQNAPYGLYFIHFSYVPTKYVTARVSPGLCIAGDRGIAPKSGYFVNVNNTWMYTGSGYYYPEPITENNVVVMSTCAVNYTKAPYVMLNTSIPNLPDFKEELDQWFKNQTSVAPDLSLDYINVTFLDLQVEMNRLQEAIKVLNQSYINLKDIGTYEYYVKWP

B1: COV_1116 (antibody, V domains shown)
VH: EVQLVESGGGLVKPGGSLRLSCAASGFTFSSYSMNWVRQAPGKGLEWVSSISSSNAYIYSADSVKGRFTISRDNAKNSLYLQMNSLRADDTAVYYCARGGRGLSSSPGRLDYYYGLDVWGQGTTVTVSS
VL: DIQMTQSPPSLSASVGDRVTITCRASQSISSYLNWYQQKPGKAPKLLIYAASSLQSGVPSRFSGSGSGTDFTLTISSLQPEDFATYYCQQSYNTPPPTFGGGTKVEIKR
notes: human IgG1
B2: COV_1032 (antibody, V domains shown)
VH: QVHLQESGPGLVKPSETLSLTCTVSGGSISSYYWSWIRQPPGKGLEWIGYIYDSGSTNYNPSLKSRVTISVDTSKNQFSLKLSSVTAADTAVYYCARSVRGVTIDYWGQGTLVTVSS
VL: DIQMTQSPSSLSASVGDRVTITCRASQSISNSISSYLNWYQKKPGKAPKLLIYAASSLQSGVPSRFSGSGSGTDFTLTISSLQPEDFATYYCQQSYSTPTTFGQGTKVEIKR
notes: human IgG1
B3: COV_2055 (antibody, V domains shown)
VH: EVQLVESGGGVVQPGRSLRLSCAASGFTLSSYGMHWVRQAPGKGLEWVAVISYEGSNKHYADSVKGRFTISRDNSKNTLYLQMNSLRAEDTAVYYCAKGSTNYFDHWGQGTLVTVSS
VL: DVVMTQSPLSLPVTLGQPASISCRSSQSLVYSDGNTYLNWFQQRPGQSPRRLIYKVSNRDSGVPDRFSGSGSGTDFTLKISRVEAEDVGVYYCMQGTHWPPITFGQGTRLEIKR
notes: human IgG1
B4: COV_2151 (antibody, V domains shown)
VH: QVQLQESGPRLVKPSETLSLTCTVSGGSISGSNYFWGWIRQPPGKGLEWIGTIYYGGSTYYNPSLKSRVTISVDTSENQFSLKLSSVTAADTAVYYCANLAWLRGYFDYWGQGTLVTVSS
VL: NFMLTQPHSVSESPGKTVTISCTRSSGSIASNYVQWYQQRPGSAPTTVIYEDNQRPSGVPDRFSGSIDSSSNSVSLTISGLKTEDEADYYCQSYDSSNWVFGGGTKLTVL
notes: human IgG1

How the values were obtained:
[1] = molecular target: T1, MERS-CoV spike antigens (bead panel); assay: multiplex bead assay
[2] = molecular target: T2, HCoV-229E spike antigens (bead panel); assay: multiplex bead assay
[3] = molecular target: T3, HCoV-HKU1 spike antigens (bead panel); assay: multiplex bead assay
[4] = molecular target: SARS-CoV-2 S on pseudovirions (Wuhan Hu-1 / IL1/2020, last 18 amino acids removed) (SARS-CoV-2, UniProt P0DTC2 14-1273); assay: cell-based or functional assay
[5] = molecular target: T4, HCoV-OC43 spike antigens (bead panel); assay: multiplex bead assay

Binder	binding result [1]	binding result [2]	binding result [3]	Mean IC50, pSV neutralization [4] [µg/ml]	Mean IC80, pSV neutralization [4] [µg/ml]	binding result [5]
B1	no binding	no binding	no binding	6.99	≥ 25	–
B2	no binding	no binding	–	2.5	≥ 25	–
B3	no binding	no binding	–	–	–	–
B4	–	–	–	0.12	1.21	no binding
